Experimental findings from article PMC5928105 are described below.

The assay has as its target 20S proteasome core (mouse (endogenous in mouse retina)) (UniProt Q9Z2U0). The experiment in a line: SEC; retinal lysates of WT or PA28α overexpressing mice on Superose-6 (Fig. 1) or Superose-6 Increase; 50 mM Tris-HCl pH 7.4, 40 mM NaCl, 5 mM MgCl2, 10% glycerol, 1 mM DTT, 1 mM ATP; 0.5 ml fractions western-blotted for β1 (20S), PSMD11 (19S) and PA28α (11S).
Chain of UniProt Q9Z2U0 (Q9Z2U0 whole entry, looked up): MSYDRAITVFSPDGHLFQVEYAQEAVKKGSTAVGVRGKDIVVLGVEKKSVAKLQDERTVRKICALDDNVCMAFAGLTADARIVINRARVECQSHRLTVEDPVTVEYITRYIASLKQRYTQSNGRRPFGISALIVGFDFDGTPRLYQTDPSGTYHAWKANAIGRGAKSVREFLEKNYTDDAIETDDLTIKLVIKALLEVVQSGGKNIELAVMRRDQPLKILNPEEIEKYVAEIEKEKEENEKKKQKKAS

“11S caps formed upon PA28α overexpression (homomeric, PA28α subunits alone) (from UniProt P97371 1-249) (complex)” showed a percent of PA28α co-eluting with 20S of 2%. As to “19S proteasome cap (from UniProt Q8BG32 1-422; Q8BJY1 1-504; Q99JI4 1-389; Q3TXS7 1-953) (complex)”, the percent of 20S cores co-eluting with 19S caps was found to be 45%.
